Our source for the Kd, koff and kon values is US20120040375A1.

Assay [1] concerns the target biotin-labeled T-47D culture supernatant (MUC1) (human) (UniProt P15941). The assay is described as follows: SPR, Biacore, biotin-labeled T-47D culture supernatant on sensor chip SA. A general note: SPR reads the build-up and loss of mass on a sensor chip optically.
For assay [2], the target named is Biotin-Tn(DT*R)-100. The assay is described as follows: SPR, Biacore T100, Biotin-Tn(DT*R)-100 on sensor chip SA.

Sequence of biotin-labeled T-47D culture supernatant (MUC1) (human) (P15941 24-1097 limits assumed): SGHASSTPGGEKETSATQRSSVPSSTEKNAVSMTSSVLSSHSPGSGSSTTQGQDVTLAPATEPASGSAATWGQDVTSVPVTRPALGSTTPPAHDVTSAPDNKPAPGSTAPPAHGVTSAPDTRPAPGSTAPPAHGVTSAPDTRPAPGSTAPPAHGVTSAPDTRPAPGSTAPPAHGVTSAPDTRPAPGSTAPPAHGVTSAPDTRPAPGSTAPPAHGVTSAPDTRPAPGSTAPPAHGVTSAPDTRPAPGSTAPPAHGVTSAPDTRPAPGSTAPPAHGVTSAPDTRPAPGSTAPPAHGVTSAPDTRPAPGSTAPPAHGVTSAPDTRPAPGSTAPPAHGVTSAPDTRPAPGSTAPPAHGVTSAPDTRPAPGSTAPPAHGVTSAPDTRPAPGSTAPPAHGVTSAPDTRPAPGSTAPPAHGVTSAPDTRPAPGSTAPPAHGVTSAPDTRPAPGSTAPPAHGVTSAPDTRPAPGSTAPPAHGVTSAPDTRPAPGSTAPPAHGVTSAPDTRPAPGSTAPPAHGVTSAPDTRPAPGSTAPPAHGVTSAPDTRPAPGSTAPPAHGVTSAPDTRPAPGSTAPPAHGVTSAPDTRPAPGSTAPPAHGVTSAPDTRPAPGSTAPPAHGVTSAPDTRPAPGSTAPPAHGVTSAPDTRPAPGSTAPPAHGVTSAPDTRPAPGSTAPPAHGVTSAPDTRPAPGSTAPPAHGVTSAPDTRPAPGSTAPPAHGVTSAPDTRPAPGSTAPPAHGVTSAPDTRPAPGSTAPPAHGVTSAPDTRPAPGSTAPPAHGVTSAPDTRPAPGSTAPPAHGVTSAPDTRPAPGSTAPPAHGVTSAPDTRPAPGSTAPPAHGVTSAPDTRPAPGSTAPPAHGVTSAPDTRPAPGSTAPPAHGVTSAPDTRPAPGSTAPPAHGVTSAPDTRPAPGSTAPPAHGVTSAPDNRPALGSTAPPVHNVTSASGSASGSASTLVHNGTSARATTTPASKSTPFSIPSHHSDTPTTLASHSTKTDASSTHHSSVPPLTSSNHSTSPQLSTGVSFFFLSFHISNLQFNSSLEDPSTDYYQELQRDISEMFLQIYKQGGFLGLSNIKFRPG
T100 sequence (peptide, as listed by the source limits assumed): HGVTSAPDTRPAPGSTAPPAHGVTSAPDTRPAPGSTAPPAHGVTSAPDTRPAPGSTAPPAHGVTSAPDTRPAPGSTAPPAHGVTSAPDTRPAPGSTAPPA

The Kd is the concentration at which binding is half-saturated. A high value points to a looser complex. One may read the koff as a measure of how fast the partners let go of each other. Broadly, the kon is the rate constant with which the complex forms. For the substance C595 (antibody), in assay [1], the dissociation constant (Kd) was found to be 580 nM, the dissociation rate constant (koff) came out at 0.026 s⁻¹ and the kon worked out at 44000 M⁻¹ s⁻¹. In assay [2], this substance displayed an equilibrium dissociation constant (Kd) of 720 nM, an off-rate (koff) of 0.012 s⁻¹ and an association rate constant (kon) of 16000 M⁻¹ s⁻¹.
In assay [1], VU-2G7 (antibody) yielded a Kd of 180 nM, a koff of 0.099 s⁻¹ and a kon of 550000 M⁻¹ s⁻¹. In assay [2], this substance came in with a dissociation constant (Kd) of 180 nM, an off-rate (koff) of 0.064 s⁻¹ and an association rate constant (kon) of 360000 M⁻¹ s⁻¹.
In assay [1], VU-3C6 (antibody) returned a Kd of 150 nM, an off-rate (koff) of 0.015 s⁻¹ and an on-rate (kon) of 110000 M⁻¹ s⁻¹. In assay [2], this substance showed a dissociation constant (Kd) of 840 nM, an off-rate constant (koff) of 0.051 s⁻¹ and a kon of 61000 M⁻¹ s⁻¹.
